Measured values taken from the RNAGym collection of RNA variant scans (doi:10.1073/pnas.2313332121).

B1: TPR t1 (parent)
chain: GACCAAUCUGCCCUCAGAGCUCGAGAACAUCUUCGGAUGCAGAGGAGGCAGGCUUCGGUGGCGCGAUAGCGCCAACGUCCUCAACCUCCAAUGCAUCCCACCACAUGAUGAUGCCUGAAGAGCCUUGGUUUUUUG

Variants of: B1
Assay: polymerase ribozyme fitness, log enrichment relative to wild type (log ratio); higher = more active; in vitro selection for triplet polymerase activity
In short: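 Both subunits of a heterodimeric triplet polymerase ribozyme were given their own mutant library, built by PCR and transcribed. Each library was annealed with a biotinylated primer, the partner subunit and triplets, incubated frozen at −7 °C, and its extended constructs gel-excised, captured on streptavidin beads and amplified by RT-PCR, all in one round done in triplicate. Fitness is the logarithm of genotype enrichment relative to wild-type enrichment, with replicates averaged by inverse-variance weighting. That logarithm is base 2, and Illumina-sequenced genotypes needed ≥10 input reads and ≥1 read per output.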

Variant	polymerase ribozyme fitness (log ratio)
GACCAAUCUGCCCUGAGAGCUCGAGAACAUCUUCGGAUGCAGAGCAGGCAGGUUUCGGUGGCGCGAUAGCGCCAACGUCCUCAACCUCCAUUGCAUCCCACCACAUGAUGAUGCCUGAAGAGCCUUGGUUUUUUG [C15G G45C C53U A91U]	-5.56
GACCAAUCUGCCCUGAGAGCUCGAGAACAUCUUCGGAUGCAGAGGAGGCAGGCUUCGGUGGCGCGAUAGCGCCAACGUCCUGAACCUCCAAUGCAUCCCACCACAUGAUGAUGCCUUAAGAGCCUUGGUCUUUUG [C15G C82G G117U U130C]	-0.86
GACCAAUCUGCCCUGAGAGCUCGAGAACAUCUUCGGAUGCAGAGGAGCCAGGCUUCGGUGGCGCGAUAGCGCCAACGUCCUCAAUCUCCAAUGCAUCCCACCACAUGAUGAUGCCUGAAGAACCUUGGUUUUUUG [C15G G48C C85U G122A]	-3.3
GACCAAUCUGCCCUGAGAGCUCGAGAACAUCUUCGGAUGCAGAGGAGGCAGGCUUCGGUGGCGCGAUAGCGCCAACGGCCUCAACCUCCAAUGCAUCCCACCACAUGAUGAUGCUUGAAGAGCCUAGGUUUUUUG [C15G U78G C115U U126A]	-2.34
GACCAAUCUGCCCUGAAAGCUCGAGAACAUCUUCGGAUGCAGAGGAGGCAGGCUUCGGUGGCGCGAUAGCGCCAACGUCCUCAACCUCCAAUGCAUCCCACCACAUGAUGAUGCCUGAAGAGCCUUGGUUUUUUG [C15G G17A]	-3.99
GACCAAUCUGCCCUGAGAGCUCGAGAACAUCUUCGGAUGCAGAGGAGGCAGGCUUCGGUGGCGCGAUAGCGCCAACGUCCUCAACCUCCAAUGCAUCCCACCACAUGAUGAUGCCUGAAGAGCCUUGGUUUAUUG [C15G U132A]	-2.31
GACCAAUCUGCCCUGAGAGCUCGAGAACAUCCUCGCAUGCAGAGGAGGGAGGCUUCGGCGGCGCGAUAGCGCCAACGUCCUCAACCUCCAAUGCAUCCCACCACAUGAUGAUGCCUGAACAGCCUUGGUUUUUUG [C15G U32C G36C C49G U59C G120C]	-4.02
GACCAAUCUGCCCUGAGAGCUCGAGAACAUCUUCGGAUUCAGAGGAGGCAGGCUUCGGUGGCGCGAUAGCGACAACGUCCUCAACCUCCAAUGCAUCCCACCACAUGAUGAUGCCUGAAGAGCCUUGGUUUUUUG [C15G G39U C72A]	-3.5
GACCAAUCUGCCCUGAGAGCUCGAGAACAUCUUCGGAUGCAGAGGAGGCAGGCUUCGGUGGCGCGAUAGCGCCAAGGUCCUCAACCUCCAAUGCAUCCCAACACAUGAUGAUGCCUGAAGAGCCUUGGUUUUUUG [C15G C76G C101A]	-3.53
GACCAAUCUGCCCUGAGAGCUCGAGAACAUCUUCGAAUGCAGAGGAGGCAGGCUUCGGUGGCGCGAUAGCGCCAACGUCCUCAACCUCCAAUGCAUCCCCCCACAUGAUGAUGCCUGAAGAGCGUUGGUUUUUUG [C15G G36A A100C C124G]	-3.29
GACCAAUCUGCCCUGAGAGCUCGAGAACAUCUUCGAAUGCAGAGGAGGCAGGCUUCGGUGGCGCGAUAGCGCCAACGUCCUCAACCUCCAAUGCAUCCCACCACAUGAUGAUGCCUGAAGAGCCUUGGUUUUUUG [C15G G36A]	-4.46
GACCAAUCUGCCCUGAGAGCUCGAGAACAUCUUCGGAUGCAGAGGAGGCAGGCUUCAGUGGCGCGAUAGCGCCAACGUCCUCAACCUCCAAUGCAUCCCACCACAUGAUGAUGCCUGAAGAGCCUUGGUUUCUUG [C15G G57A U132C]	-3.99
GACCAAUCUGCCCUGAGAGCUCGAGAACAUCUUCGGAUGCAGAGGAGGCAGGCUUCGGUGGCGCGAUAGCGCCAACGUCCUCAACCUCCAAUGCACCCCACCACAUGAUGAUGCCUCAAGAGCCUUGGUGUUUUG [C15G U96C G117C U130G]	0.208
GACCAAUCUGCCCUGAGAGCUCGAGAACAUCUUCGGAUGCAGAGGAGGCAGGCUUCGGUGGCGCGAUAUCGCCAACGUCCUCAACCUCCAAUGAAUCCCACCACAUGAAGAUGCCUGAAGAGCAUUGGUUUUUUG [C15G G69U C94A U109A C124A]	-4.14
GACCAAUCUGCCCUGAGAGCUCGAGAACAUCUUCGGAUGCAGAGGAGGCAGGCUUCGGUGGCGCGAUAUCGCCAACGUCCUCAACCUCCAAUGCAUCCCACAACAUGAUGAUGCCUGAAGAGCCUUGGUUUUUUG [C15G G69U C102A]	-1.71
GACCAAUCUGCCCUGAGAGCUCGAGAACAUCUUCGGAUGCAGAGGAGGCAGACUUCGGUGGCGCGAUAGCGCCAACGUCCUCAACCUCCAAUGCAUCCCACCACAUGAUGAUGCCUGAAGAGCCUUGGUUUUUUG [C15G G52A]	-2.6
GACCAAUCUGCCCUGAGAGCUCGAGAACAUCUUCGGAUGCAGAGGAAGCAGGCUUCGGUGGCGCGAUAGGGCCAACGUCCUCAACCUCCAAUGCAUCCCACCACAUGAUGAUGCCUCAAGAGCCUUGGUUUUUUG [C15G G47A C70G G117C]	-3.82
GACCAAUCUGCCCUGAGAGCUCGAGAACAUCUUCGGAUGCAGAGGAGGCAGGCUUCGGAGGCCCGAUAGCGCCAACGUCCUCAACCUCCAAUGCAUCCCACCACAUGAUGAUGCCUGAAGAGCCUUGGUUUUUUG [C15G U59A G63C]	-2.33
GACCAAUCUGCCCUGAGAGCUCGAGAACAUCCUCGGAUGCAGAGGAGGUAGGCUUCGGUGGCGCGAUAGCGCCAACGUCCUCAACCGCCAAUGCAUCCCACCACAUGAUGAUGCCUGAAGAGCCUUGGUUUUUUG [C15G U32C C49U U87G]	-3.89
GACCAAUCUGCCCUGAGAGCUCGAGAACAUCUUCGGAUUCAGAGGAGGCAGGCUUCGGUGGCGCGAUAGCGCGAACGUCCUCAACCUCCAAUGCAUCCCACCACAUGAUGAAGCCUGAAGAUCCUUGGUUUUUUG [C15G G39U C73G U112A G122U]	-2.91
GACCAAUCUGCCCUGAGAGCUCGAGAACAUCCUCGCAUGCAGAGGAGGGAGGCUUCGGUGGCGCGAUAGCGCCAACGUCCUCAACCUCCAAUGCAUCCCACCACAUGAUGAUGCCUGAACAGCCUUGGUUUUUUG [C15G U32C G36C C49G G120C]	-3.15
